Measured values: article PMC6155322
Values joined by “and” are separate entries in the source; they are usually repeats but may differ in a detail not shown here. Equal values may be shown once.

Experiments:
[1] = target: pyruvate kinase M2 type (PKM2), human HK-2 cells (human (endogenous in HK-2)) (UniProt P14618); assay: cross-linking; glutaraldehyde chemical cross-linking of scramble siRNA, sirt3 siRNA transfected and TGFβ alone treated HK-2 cells; Western blot
[2] = target: pyruvate kinase M2 type (PKM2), mouse kidney (mouse (endogenous in kidney)) (UniProt P52480); assay: cross-linking; glutaraldehyde added to clarified kidney lysate (4 mg/mL; sodium phosphate buffer pH 7.3, 0.5% Triton X-100), 37 °C for 10 min, stopped with Tris; 5-20% SDS/PAGE and Western blotting; kidneys of control and diabetic CD-1 and C57Bl6 mice, scramble or sirt3 siRNA injected diabetic mice, DCA treated diabetic mice, KK/Ta-Ins2Akita mice and littermate controls

Sequence of pyruvate kinase M2 type (PKM2), mouse kidney, P52480 1-531 (enzyme; other documents disagree on this pair) (P52480 whole entry): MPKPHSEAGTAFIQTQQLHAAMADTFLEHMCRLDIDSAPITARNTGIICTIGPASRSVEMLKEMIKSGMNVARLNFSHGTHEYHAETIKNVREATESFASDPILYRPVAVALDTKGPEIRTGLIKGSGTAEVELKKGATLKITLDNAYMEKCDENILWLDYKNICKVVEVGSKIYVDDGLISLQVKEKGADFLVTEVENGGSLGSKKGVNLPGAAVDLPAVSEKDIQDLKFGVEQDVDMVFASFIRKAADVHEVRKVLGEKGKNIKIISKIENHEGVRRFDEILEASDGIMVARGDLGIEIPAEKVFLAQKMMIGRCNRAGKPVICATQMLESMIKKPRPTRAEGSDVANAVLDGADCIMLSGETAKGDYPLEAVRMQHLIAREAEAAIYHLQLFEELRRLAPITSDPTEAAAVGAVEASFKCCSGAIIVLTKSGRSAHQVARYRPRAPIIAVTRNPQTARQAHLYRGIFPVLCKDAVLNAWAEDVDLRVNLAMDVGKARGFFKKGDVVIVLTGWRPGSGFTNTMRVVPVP
Sequence of pyruvate kinase M2 type (PKM2), human HK-2 cells, P14618 1-531 (enzyme; other documents disagree on this pair) (P14618 whole entry): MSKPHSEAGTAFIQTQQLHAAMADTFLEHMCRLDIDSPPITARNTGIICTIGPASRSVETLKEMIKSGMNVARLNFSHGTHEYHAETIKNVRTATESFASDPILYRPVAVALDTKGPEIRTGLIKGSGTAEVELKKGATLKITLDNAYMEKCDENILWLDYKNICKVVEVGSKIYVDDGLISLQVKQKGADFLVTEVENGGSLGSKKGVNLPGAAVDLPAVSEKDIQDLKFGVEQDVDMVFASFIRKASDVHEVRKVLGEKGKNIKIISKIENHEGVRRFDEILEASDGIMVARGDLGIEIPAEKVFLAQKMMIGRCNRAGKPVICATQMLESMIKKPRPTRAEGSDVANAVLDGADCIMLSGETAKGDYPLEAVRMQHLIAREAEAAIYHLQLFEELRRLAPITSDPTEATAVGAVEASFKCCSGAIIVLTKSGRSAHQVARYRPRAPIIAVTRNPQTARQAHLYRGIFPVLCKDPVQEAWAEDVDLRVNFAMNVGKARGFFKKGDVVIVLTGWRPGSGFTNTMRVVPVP

| stoichiometry N [1] | stoichiometry N [2] | Substance |
| --- | --- | --- |
| 2 |  | pyruvate kinase M2 type (PKM2), human HK-2 cells, P14618 1-531 (enzyme; other documents disagree on this pair) |
|  | 2 and 4 | pyruvate kinase M2 type (PKM2), mouse kidney, P52480 1-531 (enzyme; other documents disagree on this pair) |
